Results: article PMC8599580, “Focused Proteomics Analysis of Habu Snake (Protobothrops flavoviridis) Venom Using Antivenom-Based Affinity Chromatography Reveals Novel Myonecrosis-Enhancing Activity of Thrombin-Like Serine Proteases” (Frontiers in Pharmacology, 2021)

T1: [Asp49] PLA2 (Protobothrops flavoviridis, UniProt P06859 17-138)
T1 construct: hemolytic [Asp49] phospholipase A2 of Protobothrops flavoviridis; source: prepared from habu (Protobothrops flavoviridis) crude venom
T1 sequence (looked up): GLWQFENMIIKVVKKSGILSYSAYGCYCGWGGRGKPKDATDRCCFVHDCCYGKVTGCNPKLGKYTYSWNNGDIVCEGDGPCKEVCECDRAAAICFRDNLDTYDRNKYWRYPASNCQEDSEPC

B1: TLf2, thrombin-like serine protease TLSP2 (natural protein)
chain: IIGGDECNINEHRFLVALYTFRSRRLHCGGILINQEWVLSAARCNRKNIRIQLGMHSTNVINEDVQTRVPKEKFFCLSSKTHTRWNKDIMLIRLNSPVNNSTHIAPVSLPSNPPSLGSVCRVMGWGTISATKETHPDVPHCANINILDYSVCRAAYARLPATSRTLCAGILEGGKDSCKADSGGPLICNGEIQGIVSRGGHSCGQPRKPGLYTKVFDHLDWIKSIIAGNKDAICPP
notes: numbers count on: the mature protein; also called svSP02_TLf2; basic 30 kDa protein; source: purified from habu crude venom (CM-52 basic fraction #15, POROS HS column)
B2: TLf1 (flavoxobin) (enzyme, Protobothrops flavoviridis)
chain: VIGGDECNINEHPFLVALYDAWSGRFLCGGTLINPEWVLTAAHCDSKNFKMKLGAHSQKVLNEDEQIRNPKEKFICPNKKNTEVLDKDIMLIKLDSPVSYSEHIAPLSLPSSPPSVGSVCRIMGWGSITPVEETFPDVPHCANINLLDDVECKPGYPELLPEYRTLCAGVLQGGIDTCGFDSGTPLICNGQFQGIVYIGSHPCGQSRKPGIYTKVFDYNAWIQSIIAGNTAATCLP
notes: flavoxobin, thrombin-like serine protease of Protobothrops flavoviridis; also called svSP01_TLf1; flavoxovin; source: purified from habu crude venom (CM-52 flow-through, Hi-trap benzamidine column)

Assays:
Conditions in all cases: both partners purified
[Asp49] PLA2 = molecular target: T1, [Asp49] PLA2; experiment: SPR; BIAcore X; TLf1 or TLf2 immobilised on a CM5 chip by amine coupling; BPII or [Asp49] PLA2 injected as analytes (12.5-100 ug/ml) in HBS (10 mM HEPES pH 7.4, 0.15 M NaCl, 3 mM EDTA, 0.005% surfactant P-20) at 20 uL/min; nonlinear least-squares fitting with BIAevaluation
TLf1 (flavoxobin) = molecular target: B2; experiment: as above
[1] = molecular target: B1; experiment: as above
[2] = molecular target: T2, thrombin-like serine protease TLSP2 (TLf2) (Protobothrops flavoviridis, UniProt O13057 25-260); experiment: SPR; BIAcore X; TLf2 or TLf1 amine-coupled on CM5 chip; BPII or [Asp49] PLA2 injected as analytes (12.5-100 ug/ml) in HBS (10 mM HEPES pH 7.4, 0.15 M NaCl, 3 mM EDTA, 0.005% P-20), 20 uL/min; unmodified CM5 as control; regeneration 10 mM HCl
T2 construct: also called svSP02_TLf2; basic 30 kDa protein; source: purified from habu (Protobothrops flavoviridis) crude venom (CM-52, POROS HS)

flavoxobin (TLf1) = molecular target: T3, flavoxobin (TLf1) (Protobothrops flavoviridis, UniProt P05620 25-260); experiment: as above
T3 construct: Flavoxobin (TLf1), thrombin-like serine protease of Protobothrops flavoviridis venom; also called flavoxovin; svSP01_TLf1

| Binder | Ka ([Asp49] PLA2) [M⁻¹] | Kd ([Asp49] PLA2) [nM] | koff ([Asp49] PLA2) [s⁻¹] | kon ([Asp49] PLA2) [M⁻¹ s⁻¹] | further results |
| --- | --- | --- | --- | --- | --- |
| B1 | 7.9e+06 | 127 | 0.000791 | 6250 | – |
| B2 | 371000 | 2690 | 0.0125 | 4660 | – |
| [Lys49]PLA2 (BPII) (natural protein, [Lys49] phospholipase A2 BPII of Protobothrops flavoviridis; also called myonecrotic [Lys49]; PLA2; source: prepared from habu (Protobothrops flavoviridis) crude venom) SLVQLWKMIFQETGKEAAKNYGLYGCNCGVGRRGKPKDATDSCCYVHKCCYKKVTGCNPKMDSYSYSWKNKAIVCGEKNPPCLKQVCECDKAVAICLRENLGTYNKKYTIYPKPFCKKADTC | – | – | – | – | Ka (TLf1 (flavoxobin)): 6.56e+06 M⁻¹; koff (TLf1 (flavoxobin)): 0.00257 s⁻¹; kon (TLf1 (flavoxobin)): 16900 M⁻¹ s⁻¹; Ka [1]: 1.02e+07 M⁻¹; koff [1]: 0.00122 s⁻¹; kon [1]: 12500 M⁻¹ s⁻¹ |
| [Lys49] PLA2 (BPII) (natural protein, Basic protein II (BPII), [Lys49] phospholipase A2 myotoxin of Protobothrops flavoviridis venom; also called [Lys49]PLA2 myotoxin; myonecrotic [Lys49]; PLA2) SLVQLWKMIFQETGKEAAKNYGLYGCNCGVGRRGKPKDATDSCCYVHKCCYKKVTGCNPKMDSYSYSWKNKAIVCGEKNPPCLKQVCECDKAVAICLRENLGTYNKKYTIYPKPFCKKADTC | – | – | – | – | Kd [2]: 97.9 nM; Kd (flavoxobin (TLf1)): 152 nM |
